Data taken from patent US12303551B2, “Cellular immunotherapy compositions and uses thereof” (CERO THERPEUTICS HOLDINGS, INC., priority 2018, dated 2025).

B1: CER19: Chimeric engulfment receptor: Tim4 binding, Tim4 transmembrane, TLR5 signaling; SEQ ID NO: 95 (protein)
chain: MSKGLLLLWLVTELWWLYLTPAASEDTIIGFLGQPVTLPCHYLSWSQSRNSMCWGKGSCPNSKCNAELLRTDGTRIISRKSTKYTLLGKVQFGEVSLTISNTNRGDSGVYCCRIEVPGWFNDVKKNVRLELRRATTTKKPTTTTRPTTTPYVTTTTPELLPTTVMTTSVLPTTTPPQTLATTAFSTAVTTCPSTTPGSFSQETTKGSAFTTESETLPASNHSQRSMMTISTDIAVLRPTGSNPGILPSTSQLTTQKTTLTTSESLQKTTKSHQINSRQTILIIACCVGFVLMVLLFLAFLTKFRGFCFICYKTAQRLVFKDHPQGTEPDMYKYDAYLCFSSKDFTWVQNALLKHLDTQYSDQNRFNLCFEERDFVPGENRIANIQDAIWNSRKIVCLVSRHFLRDGWCLEAFSYAQGRCLSDLNSALIMVVVGSLSQYQLMKHQSIRGFVQKQQYLRWPEDFQDVGWFLHKLSQQILKKEKEKKKDNNIPLQTVATIS
modifications: CER19, amino acids 1-22 are signal peptide
B2: CER21: Chimeric engulfment receptor: Tim4 binding, Tim4 transmembrane, TLR8 signaling; SEQ ID NO: 96 (protein)
chain: MSKGLLLLWLVTELWWLYLTPAASEDTIIGFLGQPVTLPCHYLSWSQSRNSMCWGKGSCPNSKCNAELLRTDGTRIISRKSTKYTLLGKVQFGEVSLTISNTNRGDSGVYCCRIEVPGWFNDVKKNVRLELRRATTTKKPTTTTRPTTTPYVTTTTPELLPTTVMTTSVLPTTTPPQTLATTAFSTAVTTCPSTTPGSFSQETTKGSAFTTESETLPASNHSQRSMMTISTDIAVLRPTGSNPGILPSTSQLTTQKTTLTTSESLQKTTKSHQINSRQTILIIACCVGFVLMVLLFLAFLHHLFYWDVWFIYNVCLAKVKGYRSLSTSQTFYDAYISYDTKDASVTDWVINELRYHLEESRDKNVLLCLEERDWDPGLAIIDNLMQSINQSKKTVFVLTKKYAKSWNFKTAFYLALQRLMDENMDVIIFILLEPVLQHSQYLRLRQRICKSSILQWPDNPKAEGLFWQTLRNVVLTENDSRYNNMYVDSIKQY
modifications: CER21, amino acids 1-22 are signal peptide
B3: CER17: Chimeric engulfment receptor: Tim4 binding, Tim4 transmembrane, TLR3 signaling; SEQ ID NO: 112 (protein)
chain: MSKGLLLLWLVTELWWLYLTPAASEDTIIGFLGQPVTLPCHYLSWSQSRNSMCWGKGSCPNSKCNAELLRTDGTRIISRKSTKYTLLGKVQFGEVSLTISNTNRGDSGVYCCRIEVPGWFNDVKKNVRLELRRATTTKKPTTTTRPTTTPYVTTTTPELLPTTVMTTSVLPTTTPPQTLATTAFSTAVTTCPSTTPGSFSQETTKGSAFTTESETLPASNHSQRSMMTISTDIAVLRPTGSNPGILPSTSQLTTQKTTLTTSESLQKTTKSHQINSRQTILIIACCVGFVLMVLLFLAFLEGWRISFYWNVSVHRVLGFKEIDRQTEQFEYAAYIIHAYKDKDWVWEHFSSMEKEDQSLKFCLEERDFEAGVFELEAIVNSIKRSRKIIFVITHHLLKDPLCKRFKVHHAVQQAIEQNLDSIILVFLEEIPDYKLNHALCLRRGMFKSHCILNWPVQKERIGAFRHKLQVALGSKNSVH
modifications: CER17, amino acids 1-22 are signal peptide
B4: CER23: Chimeric engulfment receptor: Tim4 binding, Tim4 transmembrane, TLR9 signaling; SEQ ID NO: 116 (protein)
chain: MSKGLLLLWLVTELWWLYLTPAASEDTIIGFLGQPVTLPCHYLSWSQSRNSMCWGKGSCPNSKCNAELLRTDGTRIISRKSTKYTLLGKVQFGEVSLTISNTNRGDSGVYCCRIEVPGWFNDVKKNVRLELRRATTTKKPTTTTRPTTTPYVTTTTPELLPTTVMTTSVLPTTTPPQTLATTAFSTAVTTCPSTTPGSFSQETTKGSAFTTESETLPASNHSQRSMMTISTDIAVLRPTGSNPGILPSTSQLTTQKTTLTTSESLQKTTKSHQINSRQTILIIACCVGFVLMVLLFLAFLGWDLWYCFHLCLAWLPWRGRQSGRDEDALPYDAFVVFDKTQSAVADWVYNELRGQLEECRGRWALRLCLEERDWLPGKTLFENLWASVYGSRKTLFVLAHTDRVSGLLRASFLLAQQRLLEDRKDVVVLVILSPDGRRSRYVRLRQRLCRQSVLLWPHQPSGQRSFWAQLGMALTRDNHHFYNRNFCQGPTAE
modifications: CER23, amino acids 1-22 are signal peptide
B5: CER26: Chimeric engulfment receptor: Tim4 binding, Tim4 transmembrane, TLR1 signaling; SEQ ID NO: 118 (protein)
chain: MSKGLLLLWLVTELWWLYLTPAASEDTIIGFLGQPVTLPCHYLSWSQSRNSMCWGKGSCPNSKCNAELLRTDGTRIISRKSTKYTLLGKVQFGEVSLTISNTNRGDSGVYCCRIEVPGWFNDVKKNVRLELRRATTTKKPTTTTRPTTTPYVTTTTPELLPTTVMTTSVLPTTTPPQTLATTAFSTAVTTCPSTTPGSFSQETTKGSAFTTESETLPASNHSQRSMMTISTDIAVLRPTGSNPGILPSTSQLTTQKTTLTTSESLQKTTKSHQINSRQTILIIACCVGFVLMVLLFLAFLSYLDLPWYLRMVCQWTQTRRRARNIPLEELQRNLQFHAFISYSGHDSFWVKNELLPNLEKEGMQICLHERNFVPGKSIVENIITCIEKSYKSIFVLSPNFVQSEWCHYELYFAHHNLFHEGSNSLILILLEPIPQYSIPSSYHKLKSLMARRTYLEWPKEKSKRGLFWANLRAAINIKLTEQAKK
modifications: CER26, amino acids 1-22 are signal peptide
B6: CER5: Chimeric engulfment receptor: Tim4 binding, Tim4 transmembrane, TLR4 signaling; SEQ ID NO: 94 (protein)
chain: MSKGLLLLWLVTELWWLYLTPAASEDTIIGFLGQPVTLPCHYLSWSQSRNSMCWGKGSCPNSKCNAELLRTDGTRIISRKSTKYTLLGKVQFGEVSLTISNTNRGDSGVYCCRIEVPGWFNDVKKNVRLELRRATTTKKPTTTTRPTTTPYVTTTTPELLPTTVMTTSVLPTTTPPQTLATTAFSTAVTTCPSTTPGSFSQETTKGSAFTTESETLPASNHSQRSMMTISTDIAVLRPTGSNPGILPSTSQLTTQKTTLTTSESLQKTTKSHQINSRQTILIIACCVGFVLMVLLFLAFLKFYFHLMLLAGCIKYGRGENIYDAFVIYSSQDEDWVRNELVKNLEEGVPPFQLCLHYRDFIPGVAIAANIIHEGFHKSRKVIVVVSQHFIQSRWCIFEYEIAQTWQFLSSRAGIIFIVLQKVEKTLLRQQVELYRLLSRNTYLEWEDSVLGRHIFWRRLRKALLDGKSWNPEGTVGTGCNWQEATSI
modifications: CER5, amino acids 1-22 are signal peptide

What follows are molecules tested on SCC152 cells (assay: Elimination of GFP-expressing SCC152 target cells over time (quantification and time lapse imaging)). Settings: 96-well co-culture, CD8+/E7 TCR + CD4+/CER + SCC152 1:1:1, compared to control.
Type: cell-based
Method: Target SCC152 cells were co-cultured with CD8+ T cells transduced with HPV E7 TCR+CD4+ T cells transduced with a selected CER, or controls (CD8+ T cell transduced with HPV E7 TCR+CD4+ transduced control) at a 1:1:1 ratio. The number of target cells were quantified using imaging software. 0 hours, 24 hours, and 48 hours are shown from left to right.
FIG. 21 is time lapse imaging from 96-well co-culture experiments comprising CD8+ T cells transduced with HPV16 E7 TCR+CD4+ T cells transduced with CER5, CER17 or CER19 incubated with SCC152 target cells at a 1:1:1 ratio. SCC152 HPV+ target cells were quantified using automated cell counting software.
FIG. 22 is time lapse imaging from 96-well co-culture experiments comprising CD8+ T cells transduced with HPV16 E7 TCR+CD4+ T cells transduced with CER21, CER23 or CER26 incubated with SCC152 target cells at a 1:1:1 ratio. SCC152 HPV+ target cells were quantified using automated cell counting software.
FIG. 23 is time lapse imaging from 96-well co-culture experiments comprising CD8+ T cells transduced with HPV16 E7 TCR+CD4+ T cells transduced with CER103b, CER104 or CER105 incubated with SCC152 target cells at a 1:1:1 ratio. SCC152 HPV+ target cells were quantified using automated cell counting software.
FIG. 24 is time lapse imaging from 96-well co-culture experiments comprising CD8+ T cells transduced with HPV16 E7 TCR+CD4+ T cells transduced with CER106, CER116 or CER27 incubated with SCC152 target cells at a 1:1:1 ratio. SCC152 HPV+ target cells were quantified using automated cell counting software.
FIG. 57 is a bar graph showing quantification of loss of SCC152 HPV16+ target cells over time during co-culture assays. SCC152 cells were transduced with green fluorescent protein (GFP) and co-cultured with CD8+ T cells transduced with HPV16 E7 TCR and CD4+ T cells transduced with a selected CER (CER29, CER30, CER110, CER112, CER113, CER114, CER116, or CER117) or a CD4+ T cell control at a 1:1:1 ratio (CD8:CD4:target cell). The number of target cells was quantified at various time points during co-culture (0 hrs, 12 hrs, 24 hrs, and 36 hrs) using fluorescence microscopy and imaging software.
FIG. 58 are fluorescence micrograph images of the co-culture assay described in FIG. 57, showing clearance of the SCC152 cells (pink) as co-culture with CD8+ T cells transduced with HPV16 E7 TCR and CD4+ T cells transduced with a selected CER (columns from left to right: control, CER29, CER30, CER110, or CER112) progresses (rows from top to bottom: 0 hrs, 12 hrs, 24 hrs, and 36 hrs).
FIG. 59 are fluorescence micrograph images of the co-culture assay described in FIG. 57, showing clearance of the SCC152 cells (pink) as co-culture with CD8+ T cells transduced with HPV16 E7 TCR and CD4+ T cells transduced with a selected CER (columns from left to right: control, CER113, CER114, CER116, or CER117) progresses (rows from top to bottom: 0 hrs, 12 hrs, 24 hrs, and 36 hrs).
Elimination of target SCC152 cells was also detected by quantifying green fluorescent protein expression by SCC152 cells over time (0 hr, 24 hr, 48 hr) during co-incubation with CD8+ T cells transduced with HPV16 E7 specific TCR+ CD4 T cells transduced with selected CER (see, FIG. 20).
Elimination of target SCC152 cells was also detected by quantifying green fluorescent protein expression by SCC152 cells over time (0 hr, 12 hr, 24 hr, 36 hr) during co-incubation with CD8+ T cells transduced with HPV16 E7 specific TCR+ CD4+ T cells transduced with selected CER (CER29, CER30, CER110, CER112, CER113, CER114, CER116, or CER117) (see, FIG. 57).

| Molecule | number of SCC152 cells in time lapse imaging |
| --- | --- |
| B1 | decreasing in numbers over time |
| B2 | decreasing in numbers over time |
| B3 | decreasing in numbers over time |
| B4 | decreasing in numbers over time |
| B5 | decreasing in numbers over time |
| B6 | decreasing in numbers over time |
